Measured values published in article PMC7803729 (Nature Communications, 2021).

Target: SARS-CoV-2 S protein RBD (Arg319-Asn536) with a polyhistidine tag at the C-terminus, manufactured by Celltrion (SARS-CoV-2, Wuhan-Hu-1 (YP_009724390.1), UniProt P0DTC2)
Experiment: SPR
Conditions: both partners purified

B1: CT-P59 monoclonal antibody, full-length fully human IgG (antibody, V domains shown)
VH: QITLKESGPTLVKPTQTLTLTCSFSGFSLSTSGVGVGWIRQPPGKALEWLALIDWDDNKYHTTSLKTRLTISKDTSKNQVVLTMTNMDPVDTATYYCARIPGFLRYRNRYYYYGMDVWGQGTTVTVSS
VL: ELVLTQPPSVSAAPGQKVTISCSGSSSNIGNNYVSWYQQLPGTAPKLLIYDNNKRPSGIPDRFSGSKSGTSATLGITGLQTGDEADYYCGTWDSSLSAGVFGGGTELTVL
  Kd: 27 pM
